Columns and labels:
[1] = target: ankyrin-G (AnkG) lacking the E35a-encoded peptide, endogenous, Ank3 E35a-/- mouse cerebellum (mouse (endogenous in cerebellum)) (UniProt G5E8K5); assay: co-IP; mouse cerebellum whole tissue lysate (500 μg total protein; WT or Ank3 E35a-/-); anti-AnkG antibody (Santa Cruz sc-12719) on Protein G magnetic beads, overnight at 4°C; washed with NT2 buffer; immunoblot with anti-IP3R1 or anti-Na-K ATPase; normalised to the AnkG 190 kDa isoform
[2] = target: FLAG-tagged AnkG UPA-DD domains without the E35a-encoded peptide (mouse); assay: co-IP; N2a cells 48 h after transfection with FLAG-UPA-DD minigene plasmids with or without E35a; Pierce IP lysis buffer; anti-FLAG M2 antibody on Protein G magnetic beads; immunoblot with anti-IP3R1
Chain of FLAG-tagged AnkG UPA-DD domains without the E35a-encoded peptide (mouse) (G5E8K5 whole entry, the tested form may be a part): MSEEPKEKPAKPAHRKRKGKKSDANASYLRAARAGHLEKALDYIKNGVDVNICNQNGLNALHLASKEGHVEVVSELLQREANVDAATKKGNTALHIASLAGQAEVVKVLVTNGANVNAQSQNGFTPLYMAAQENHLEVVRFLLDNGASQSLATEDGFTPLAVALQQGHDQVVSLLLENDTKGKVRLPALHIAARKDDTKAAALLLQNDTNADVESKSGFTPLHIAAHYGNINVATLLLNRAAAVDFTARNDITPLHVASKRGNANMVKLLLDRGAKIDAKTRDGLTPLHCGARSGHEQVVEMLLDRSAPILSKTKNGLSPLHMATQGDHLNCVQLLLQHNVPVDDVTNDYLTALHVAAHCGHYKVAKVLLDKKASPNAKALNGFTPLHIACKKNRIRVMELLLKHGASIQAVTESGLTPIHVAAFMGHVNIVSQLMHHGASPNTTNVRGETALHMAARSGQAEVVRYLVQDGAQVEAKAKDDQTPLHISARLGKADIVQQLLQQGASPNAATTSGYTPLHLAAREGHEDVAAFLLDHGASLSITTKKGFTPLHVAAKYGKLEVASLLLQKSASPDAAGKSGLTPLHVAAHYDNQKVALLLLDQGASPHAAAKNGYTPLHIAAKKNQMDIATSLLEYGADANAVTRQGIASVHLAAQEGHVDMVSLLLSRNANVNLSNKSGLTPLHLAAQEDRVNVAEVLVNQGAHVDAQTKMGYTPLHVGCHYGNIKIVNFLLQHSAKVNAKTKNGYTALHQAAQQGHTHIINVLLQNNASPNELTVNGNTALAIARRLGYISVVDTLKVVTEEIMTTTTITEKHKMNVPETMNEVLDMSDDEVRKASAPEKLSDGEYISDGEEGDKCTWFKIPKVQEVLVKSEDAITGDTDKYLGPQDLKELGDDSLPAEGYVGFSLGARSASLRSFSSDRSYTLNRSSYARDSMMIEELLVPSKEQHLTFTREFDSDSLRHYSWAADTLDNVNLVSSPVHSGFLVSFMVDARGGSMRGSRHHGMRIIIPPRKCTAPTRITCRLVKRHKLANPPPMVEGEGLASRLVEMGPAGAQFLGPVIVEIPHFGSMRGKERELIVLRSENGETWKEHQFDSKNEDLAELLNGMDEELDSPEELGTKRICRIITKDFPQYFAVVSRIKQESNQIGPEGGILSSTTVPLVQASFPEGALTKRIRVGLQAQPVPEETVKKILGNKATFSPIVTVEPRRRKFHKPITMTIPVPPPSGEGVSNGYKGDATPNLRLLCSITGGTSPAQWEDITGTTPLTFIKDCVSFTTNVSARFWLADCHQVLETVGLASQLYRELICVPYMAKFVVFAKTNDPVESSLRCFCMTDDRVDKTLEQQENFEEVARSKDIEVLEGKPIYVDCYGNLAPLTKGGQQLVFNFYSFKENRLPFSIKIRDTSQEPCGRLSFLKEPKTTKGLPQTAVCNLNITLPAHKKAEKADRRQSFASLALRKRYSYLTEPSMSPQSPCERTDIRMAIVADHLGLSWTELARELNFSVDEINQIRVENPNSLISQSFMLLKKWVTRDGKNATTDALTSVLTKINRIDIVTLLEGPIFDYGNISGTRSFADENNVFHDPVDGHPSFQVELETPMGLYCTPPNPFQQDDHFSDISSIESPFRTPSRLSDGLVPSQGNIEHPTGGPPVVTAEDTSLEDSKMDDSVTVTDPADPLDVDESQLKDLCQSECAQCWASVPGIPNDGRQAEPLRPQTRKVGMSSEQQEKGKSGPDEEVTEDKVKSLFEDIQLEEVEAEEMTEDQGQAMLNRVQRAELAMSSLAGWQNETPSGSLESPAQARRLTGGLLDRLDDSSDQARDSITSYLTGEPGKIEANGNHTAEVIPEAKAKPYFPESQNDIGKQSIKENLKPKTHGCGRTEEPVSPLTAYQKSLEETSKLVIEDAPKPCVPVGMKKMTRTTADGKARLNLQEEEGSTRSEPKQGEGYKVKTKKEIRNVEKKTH

| percent reduction of co-precipitated InsP3R1 against WT [1] | percent of InsP3R1 pulled down relative to UPA-DD with E35a [2] | Substance |
| --- | --- | --- |
| 77% |  | type 1 inositol trisphosphate receptor (InsP3R1), endogenous, mouse cerebellum (from UniProt P11881 1-2749) (natural protein) |
|  | 30% | type 1 inositol trisphosphate receptor (InsP3R1), endogenous, N2a cells (from UniProt P11881 1-2749) (natural protein) |

Source: doi:10.64898/2025.12.12.693948
